Test results published in the RNAGym collection of RNA variant scans (doi:10.1021/acssynbio.7b00057).

B1: Pistol ribozyme (parent)
chain: GGGUCGUUGUUCCAUAAUCGCGUGGAUAUGGCACGCAAGUUUCUACCGGGCACCGUAAAUGUCCGACUGGAGCCGUUCGGGCGGCUAUAAACAGACCUCAGGCCCGAAGCGUGGCGGCACCUGCCGCCGGUGGUAAAAAAGAUCGGAAGAGCACACGUCU

Variants of: B1
Experiment: aptazyme ON/OFF ratio, guanine; higher = stronger switching; co-transcriptional cleavage with and without guanine

Compared with U7G U8G G9U U11G C12U, U8C G9A U10C U11C C12G C13A is lower in “aptazyme ON/OFF ratio” value: 1.45 for the first, 1.24 for the second.

Going from U8G G9C U11C C13A to U10C U11C C12A C13U, the “aptazyme ON/OFF ratio” value rises from 1.06 to 1.08.

First: U8C G9C U11C
Second: U7C U8G U10C U11A C12G C13A
The “aptazyme ON/OFF ratio” value of the first is lower: 1.06 for the first, 1.07 for the second.

Compared with U8G G9C U11G C12A C13G, U7C U8C C12U is higher in “aptazyme ON/OFF ratio” value: 1.05 for the first, 1.75 for the second.

Compared with U7C U8G U10G U11A C12G C13A, U7G U8A G9U U10A U11C C12A is lower in “aptazyme ON/OFF ratio” value: 1.1 for the first, 1.07 for the second.

Going from U7G U8C G9A U10C C12U C13A to U7G G9U U10C U11G C12G C13U, the “aptazyme ON/OFF ratio” value falls from 1.15 to 1.06.

First: U8A G9C U10C U11A C12U C13U
Second: U7A U8A U10A U11A C12G
The “aptazyme ON/OFF ratio” value of the first is lower: 1.13 for the first, 1.19 for the second.

Compared with U7A U8G G9C U11G C12A C13A, U7A U8G G9U U10C U11G C12G is higher in “aptazyme ON/OFF ratio” value: 1.29 for the first, 1.45 for the second.

First: U7C U8G G9A U10G U11C C12G
Second: U7G U8G G9U U10G C12G C13U
The “aptazyme ON/OFF ratio” value of the first is lower: 1.29 for the first, 1.35 for the second.

Going from U7C U8G G9U U10G C12U to U7G U8A U11C C12U C13A, the “aptazyme ON/OFF ratio” value rises from 1.12 to 1.32.

First: G9U U10G U11C C13U
Second: U7C U8A G9U U10C U11G C12A
The “aptazyme ON/OFF ratio” value of the first is higher: 1.14 for the first, 1.07 for the second.

Going from U7C U8A G9U U11A C12G C13A to U7G U8C G9C U11G C12G C13U, the “aptazyme ON/OFF ratio” value falls from 1.17 to 1.1.

U8A G9U U10C U11G C12A C13G and G9U U10G U11G C13A are the same in “aptazyme ON/OFF ratio” value: 1.25 for the first, 1.25 for the second.

First: U7C U8C G9C U10G U11C C12G
Second: U7A U8C U10G U11C C12U
The “aptazyme ON/OFF ratio” value of the first is lower: 1.14 for the first, 1.28 for the second.

Going from U7C U8C G9U U10C C12A to U7C U8A G9C U10C C12U C13A, the “aptazyme ON/OFF ratio” value falls from 1.29 to 1.06.

Compared with U7C U8C G9C U10A U11C C13A, U7A U8G G9U U10C U11G is higher in “aptazyme ON/OFF ratio” value: 1.08 for the first, 1.71 for the second.

Going from U7G U8G G9A U10C U11G C12G C13U to U8G G9A U10A C12A, the “aptazyme ON/OFF ratio” value rises from 1.08 to 1.32.

First: U7G G9C U10G C13A
Second: U7G U8G G9C U10A U11G C12G C13G
The “aptazyme ON/OFF ratio” value of the first is higher: 1.41 for the first, 1.07 for the second.

Compared with U7A U8G G9C U11G C12G C13A, U7G G9A U10A U11A C12A C13G is higher in “aptazyme ON/OFF ratio” value: 1.1 for the first, 1.13 for the second.

Compared with U7C G9C U10C U11A C12G C13G, U7A G9C U10A C13G is lower in “aptazyme ON/OFF ratio” value: 1.41 for the first, 1.08 for the second.

Compared with U8C U10C U11G, U7A U8A G9C U10C C12U C13U is lower in “aptazyme ON/OFF ratio” value: 1.42 for the first, 1.07 for the second.

Compared with U7A U8G G9U U10A U11G C12G C13A, U8G G9C U10C U11G C12U C13A is lower in “aptazyme ON/OFF ratio” value: 1.05 for the first, 1.04 for the second.

Going from U7A G9A U11C C13A to U8A U10A U11C C12U, the “aptazyme ON/OFF ratio” value falls from 1.07 to 1.01.

Compared with U7A U8A U10G U11G C12G C13U, U7A G9C U10A U11G C13U is lower in “aptazyme ON/OFF ratio” value: 1.4 for the first, 1.09 for the second.

Compared with U7G U8A U10A U11C C13U, U7G U8C G9U U10G U11A C12G C13G is higher in “aptazyme ON/OFF ratio” value: 1 for the first, 1.12 for the second.

Compared with U7G U8C G9A U11G, U7A U8A G9C U11A C13U is lower in “aptazyme ON/OFF ratio” value: 1.3 for the first, 1.17 for the second.

Going from U7G U8C U10A C13U to U7G U8G G9U U10G, the “aptazyme ON/OFF ratio” value rises from 1.12 to 1.42.

Compared with U7G U8A G9U U10A U11G, G9C U10G C12G C13A is higher in “aptazyme ON/OFF ratio” value: 1.09 for the first, 1.22 for the second.

First: U8G G9U U10A U11A C12U
Second: U7G U8G G9C U10A C12U C13G
The “aptazyme ON/OFF ratio” value of the first is higher: 1.19 for the first, 1.03 for the second.

Compared with U7G U8G G9C U10C U11C C12U C13A, U7A G9U U10G U11A C12A C13G is higher in “aptazyme ON/OFF ratio” value: 1.08 for the first, 1.17 for the second.

First: U7A U11G C12A C13U
Second: U7A G9A C12A
The “aptazyme ON/OFF ratio” value of the first is lower: 1.25 for the first, 2.25 for the second.

Going from U7G U8C G9C U10A U11C C12U to U8G G9C U10C U11A C12U C13A, the “aptazyme ON/OFF ratio” value falls from 1.32 to 1.04.

First: U7G U8A G9A U10A U11C C12G
Second: U8C G9A U10A U11G C13G
The “aptazyme ON/OFF ratio” value of the first is lower: 1.07 for the first, 1.08 for the second.

First: U7C U10G U11G C13A
Second: U7A U8G G9C U10C U11C C13G
The “aptazyme ON/OFF ratio” value of the first is higher: 1.15 for the first, 1.02 for the second.

Compared with U7G G9C U11G C12G, U7G U8C G9U U10G U11G C13G is lower in “aptazyme ON/OFF ratio” value: 1.31 for the first, 1.17 for the second.

Going from U7G U8G G9C U10G U11A C12A C13U to G9U U10G U11C C12U C13G, the “aptazyme ON/OFF ratio” value rises from 1.11 to 1.17.

Compared with U7G G9C U10G U11C C12U C13U, U7G U11G C13G is lower in “aptazyme ON/OFF ratio” value: 1.19 for the first, 1.08 for the second.

Compared with G9U U11A C12G C13G, U7G U8C G9U U10C U11A C13U is higher in “aptazyme ON/OFF ratio” value: 1.2 for the first, 1.79 for the second.

Going from U8C G9C U10G U11A C12U C13A to U10A U11C C12A C13U, the “aptazyme ON/OFF ratio” value rises from 1.06 to 1.23.

First: U8G U11G C12A C13A
Second: U7C G9C U10G C12A C13G
The “aptazyme ON/OFF ratio” value of the first is lower: 1.13 for the first, 1.14 for the second.

First: G9U U10C U11G C12G C13U
Second: U8C U10A U11A C12A C13G
The “aptazyme ON/OFF ratio” value of the first is higher: 1.12 for the first, 1.07 for the second.

First: U7C U8G U10G U11G C12G
Second: U7A U8C U10C C12A C13A
The “aptazyme ON/OFF ratio” value of the first is lower: 1.21 for the first, 1.25 for the second.
